In article PMC11619453:

Target: ORF59HA full-length (KSHV DNA polymerase processivity factor ORF59 with an in-frame HA tag, from iSLK.BAC16-ORF59HA) (Kaposi's sarcoma-associated herpesvirus (KSHV, human herpesvirus 8), BAC16)
Sequence (F5HID2 whole entry): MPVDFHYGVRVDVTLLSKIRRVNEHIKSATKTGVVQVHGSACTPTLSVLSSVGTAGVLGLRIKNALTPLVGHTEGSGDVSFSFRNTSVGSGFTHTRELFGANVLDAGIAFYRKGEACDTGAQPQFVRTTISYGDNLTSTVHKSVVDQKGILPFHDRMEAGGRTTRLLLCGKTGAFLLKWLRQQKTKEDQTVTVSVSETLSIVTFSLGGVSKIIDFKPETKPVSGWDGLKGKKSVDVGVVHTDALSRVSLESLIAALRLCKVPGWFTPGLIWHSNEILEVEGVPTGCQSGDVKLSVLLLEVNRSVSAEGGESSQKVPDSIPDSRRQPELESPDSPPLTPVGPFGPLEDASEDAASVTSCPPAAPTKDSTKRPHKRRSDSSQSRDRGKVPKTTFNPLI

B1: ORF57 (KSHV mRNA transcript accumulation protein, MTA) (natural protein)
chain: MVQAMIDMDIMKGILEDSVSSSEFDESRDDETDAPTLEDEQLSEPAEPPADERIRGTQSAQGIPPPLGRIPKKSQGRSQLRSEIQFCSPLSRPRSPSPVNRYGKKIKFGTAGQNTRPPPEKRPRRRPRDRLQYGRTTRGGQCRAAPKRATRRPQVNCQRQDDDVRQGVSDAVKKLRLPASMIIDGESPRFDDSIIPRHHGACFNVFIPAPPSHVPEVFTDRDITALIRAGGKDDELINKKISAKKIDHLHRQMLSFVTSRHNQAYWVSCRRETAAAGGLQTLGAFVEEQMTWAQTVVRHGGWFDEKDIDIILDTAIFVCNAFVTRFRLLHLSCVFDKQSELALIKQVAYLVAMGNRLVEACNLLGEVKLNFRGGLLLAFVLTIPGMQSRRSISARGQELFRTLLEYYRPGDVMGLLNVIVMEHHSLCRNSECAAATRAAMGSAKFNKGLFFYPLS
Q: For B1, which viral DNA accumulation (qPCR of ORF26, 72 hpi) in 59HA-WT iSLK cells transfected with 30–100DsRed, against control cells is on record?
A: Its viral DNA accumulation (qPCR of ORF26, 72 hpi) in 59HA-WT iSLK cells transfected with 30–100DsRed, against control cells is 5 fold.
